In PMC9445029, “A Cryptochrome adopts distinct moon- and sunlight states and functions as sun- versus moonlight interpreter in monthly oscillator entrainment” (Nature Communications, 2022):

Columns and labels:
[1] = target: Platynereis dumerilii L-Cryptochrome (L-Cry), full length, N-terminally His6-tagged (1-567) (Platynereis dumerilii); assay: SEC-MALS; purified dark-state L-Cry on a Superose 6 10/300 column, 0.4 ml/min, SEC buffer 25 mM Bis-Tris propane pH 8.0, 150 mM NaCl; molar mass about 130 kDa against 65.6 kDa for the monomer
L-Cry (Pdu-L-Cry) = target: T1, L-Cry (Pdu-L-Cry) (Platynereis dumerilii, UniProt Z9ZPX6J9J5); assay: RP-HPLC of chromophore released from purified protein; UV/Vis spectroscopy; type: binding; conditions: co-purified from Sf9 cells; dark state oxidized FAD (maxima 450 and 475 nm), photoreduced to anionic radical; pH 8.0, 1 mM TCEP
T1 sequence (Z9ZPX6J9J5 1-565): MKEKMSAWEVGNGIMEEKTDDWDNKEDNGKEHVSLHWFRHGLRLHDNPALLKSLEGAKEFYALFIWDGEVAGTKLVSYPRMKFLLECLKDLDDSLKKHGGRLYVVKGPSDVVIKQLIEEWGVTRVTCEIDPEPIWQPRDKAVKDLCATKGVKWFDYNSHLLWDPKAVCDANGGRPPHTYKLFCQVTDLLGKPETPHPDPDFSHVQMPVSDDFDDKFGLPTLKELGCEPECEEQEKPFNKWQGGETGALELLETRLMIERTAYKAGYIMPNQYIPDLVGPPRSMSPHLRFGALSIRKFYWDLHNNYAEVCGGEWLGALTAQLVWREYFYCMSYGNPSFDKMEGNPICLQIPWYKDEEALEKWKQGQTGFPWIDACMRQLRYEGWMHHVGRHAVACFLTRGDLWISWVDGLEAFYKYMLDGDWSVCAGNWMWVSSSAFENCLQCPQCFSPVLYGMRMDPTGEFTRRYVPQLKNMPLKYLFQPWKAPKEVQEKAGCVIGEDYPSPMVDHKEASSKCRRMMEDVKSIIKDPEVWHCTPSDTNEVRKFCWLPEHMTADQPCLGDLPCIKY

| stoichiometry N [1] | Molecule | RP-HPLC of chromophore released from purified protein; UV/Vis spectroscopy (L-Cry (Pdu-L-Cry)) |
| --- | --- | --- |
| 2 | Platynereis dumerilii L-Cryptochrome (L-Cry), full length, N-terminally His6-tagged (1-567) (natural protein) |  |
|  | Cc1cc2nc3c(=O)[nH]c(=O)nc-3n(C[C@H](O)[C@H](O)[C@H](O)COP(=O)(O)OP(=O)(O)OC[C@H]3O[C@@H](n4cnc5c(N)ncnc54)[C@H](O)[C@@H]3O)c2cc1C [Flavin Adenine Dinucleotide] | purified L-Cry binds Flavin Adenine Dinucleotide (FAD) as its chromophore |
